Measurements published in patent publication US20170355773A1.
Positions count from the first letter of the chain named.

B1: 27A3 (scFv mutant of W3072-z4C12) (scFv, V domains shown, not shown: small tags and cut ends)
VH: EVQLVESGGGLSQPGNSLQLSCEASGFTFSNHDLNWVRQAPGKGLEWVAYISSASGLISYADAVRGRFTISRDNAKNSLFLQMNNLKSEDTAMYYCARDPPYTGLYALDFWGQGTQVTVSS
VL: QPVLTQSPSASASLSGSVKLTCTLSSELSSYTIVWYQQRPDKAPKYVMYLKSDGSHSKGDGIPDRFSGSSSGAHRYLSISNVQSEDDATYFCGAGYTLAGQYGWVFGSGTKVTVL
B2: 43F11 (scFv mutant of W3072-z4C12) (scFv, V domains shown, not shown: small tags and cut ends)
VH: B1 VH with T103S
VL: B1 VL with Y31F
B3: 42H8 (scFv mutant of W3072-z4C12) (scFv, V domains shown, not shown: small tags and cut ends)
VH: B1 VH with T103S
VL: B1 VL with S30Y
B4: 42G2 (scFv mutant of W3072-z4C12) (scFv, V domains shown, not shown: small tags and cut ends)
VH: B1 VH with T103S
VL: B1 VL with S30W
B5: 42F9 (scFv mutant of W3072-z4C12) (scFv, V domains shown, not shown: small tags and cut ends)
VH: B1 VH with T103S
VL: B1 VL with S30F
B6: 66B8 (scFv mutant of W3072-z4C12) (scFv, V domains shown, not shown: small tags and cut ends)
VH: B1 VH with T103S
VL: B1 VL with G100N

Molecular target: TNFRSF25-Fc protein (UniProt Q93038)
Assay: single point capture ELISA: scFv on anti-c-myc, biotinylated antigen, streptavidin-HRP

First: B1
Second: B2
The OD450 of the first is higher: 1.61 for the first, 1.6 for the second.

First: B3
Second: B4
The OD450 of the first is lower: 1.67 for the first, 3.19 for the second.

First: B5
Second: B6
The OD450 of the first is higher: 2.33 for the first, 0.4 for the second.

Molecular target: TNFRSF25-Fc protein (UniProt Q93038)
Assay: capture ELISA, scFv, against the wild-type

In the case of B4, the fold increase in ELISA signal is reported as greater than 10 fold.
